Test results as given in patent US20080124327A1 (published 2008).

Molecular target: T1, Recombinant human CD44/Fc (R&D Systems, Minneapolis, Minn., USA) (human, UniProt P16070 21-220)
T1 construct: Purchased reagent, amine-coupled to a CM5 chip at about 500 RU; also called rhCD44; recombinant CD44; not shown: Fc part of the purchased fusion
Experiment: SPR (Biacore T100); rhCD44/Fc amine-coupled to a CM5 chip, antibody injected at 0.67 to 667 nM, 1:1 model

T1 sequence (P16070 21-220): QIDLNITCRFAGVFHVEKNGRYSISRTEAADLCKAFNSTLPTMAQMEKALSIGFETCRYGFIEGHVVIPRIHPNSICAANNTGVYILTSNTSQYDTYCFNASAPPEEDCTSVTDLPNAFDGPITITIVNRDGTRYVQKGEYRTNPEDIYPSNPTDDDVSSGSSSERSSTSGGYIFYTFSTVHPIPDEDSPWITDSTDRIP

Row | Binder | Kd [nM]
1 | H460-16-2 (murine monoclonal antibody produced by the hybridoma deposited with the ATCC as accession number PTA-4621) (antibody, V domains shown) VH: EVKLLESGGGLVQPGGSLKLSCATSGFDFSRYWMSWVRQAPGKGLEWIGEVNPDSTSINYTPSLKDQFIISRDNAKNTLDLQMSKVSSEDTALYYCTRPNYYGSRYHYYAMDYWGQGTSVTVSS VL: DIQMTQTTSSLSVSLGDRVTINCRASQDINNYLNWYQQKPDGTVKLLIYYTSRLHSGVPSRFSGSGSGTDFSLTISNLEKEDVATYFCQQGSTLPFTFGSGTKLEIK | 4.19
2 | (hu)ARH460-16-2 variant HV1/KV1 (antibody, V domains shown, Humanized variable regions cloned into pANT18 (human IgG1 constant region, human kappa constant region); also called (hu)ARH460-16-2 variant 1; huARH460-16-2-variant 1) VH: EVQLVESGGGLVQPGGSLRLSCAASGFDFSRYWMSWVRQAPGKGLVWVGEVNPDSTSINYTPSLKDRFTISRDNAKNTLYLQMNSLRAEDTAVYYCTRPNYYGSRYHYYAMDYWGQGTLVTVSS VL: DIQMTQSPSSLSASVGDRVTITCRASQDINNYLNWYQQKPGKAPKLLIYYTSRLHSGVPSRFSGSGSGTDFTFTISSLQPEDIATYYCQQGSTLPFTFGQGTKLEIK | 6.32
